These results are taken from US20240228559A1, “REDOX SENSITIVE CRALBP MUTANT PROTEINS” (UNIVERSITÄT BERN, priority 2021, published 2024).

The term Kd denotes the constant that tells how readily two partners part at equilibrium.

A short description of series [1]: Photoisomerization assay of cis-retinal complexes under daylight bulb, UV/Vis. It counts as physicochemical. As to conditions: for k, reaction velocity of photoisomerization: oxidized overnight at 4° C. with 5 mM oxidized glutathione, reduced with DTT. The method, then:
Photoisomerization assays of cis-retinal and its complexes with wild-type CRALBP or with di-cysteine mutant A212C:T250C of CRALBP were performed essentially as described by Saari et al. (Saari J C and Bredberg D L, ([…]), J Biol Chem. 262(16):7618-22). For this, the gel permeation chromatography purified ligand complexes were diluted to 26 μM in (GFC) buffer (10 mM Hepes, 100 mM NaCl, pH 7.5) and equimolar amounts of BSA were added to avoid protein precipitation through the light induced formation of free all-trans-retinal. […] Simultaneously UV/Vis absorption spectra were collected every 180 seconds for 3600 sec in total using the Evolution array UV/Vis spectrophotometer (Thermo Scientific). For photoisomerization experiments of the oxidized mutant A212C: T250C or the wild-type CRALBP, 5 mM oxidized glutathione was added to the preformed complexes and the mixtures were kept overnight at 4° C. For repeated reduction, the oxidized glutathion was first removed from the samples using a Vivaspin 15R Hydrosart (Sartorius) by three times concentrating the samples to a tenth of the volume and subsequent redilution in buffer (10 mM Hepes, 100 mM NaCl, pH 7.5) to the original volume. The washed samples were then reduced by adding 5 mM DTT and kept at 4° C. for 1 hour. […] Thus, the introduction of the A212C:T250C double mutation represents an engineered redox-sensitive on-off switch into human CRALBP allowing for a reversible turning on and off of CRALBP's mobile gate functionality. The two mutations are located at adjacent positions in the mobile gate's interface of CRALBP allowing for the formation of an intramolecular disulfide bond under oxidizing conditions and to regain the gate's native functionality under reducing conditions.

Series [2] can be described thus: Dynamic light scattering of GFC complex fractions. It counts as physicochemical. As to conditions: DLS, 25° C., H2O; ± SD. The method, then: The same fractions derived from the preparative GFC that were characterized by analytical GFC, were also analyzed by dynamic light scattering (DLS) on a Malvern Zetasizer S®. Each DLS experiment contains was performed following the settings compiled in Table 5, the run duration and number of runs per measurement was set according to the auto-optimization of the Malvern Zetasizer software.

The next series addresses T1, CRALBP (Bos taurus, UniProt P10123).
T1 construct: CRALBP was isolated from bovine retina; from tissue; host or cells: bovine retina
As to conditions: CRALBP isolated from bovine retina; cited from earlier work.

The conditions of series [3]: both in complex with 11-cis-retinal; estimated from first order rate constants and extinction coefficients; cited from earlier work.

T1 sequence (P10123 whole entry): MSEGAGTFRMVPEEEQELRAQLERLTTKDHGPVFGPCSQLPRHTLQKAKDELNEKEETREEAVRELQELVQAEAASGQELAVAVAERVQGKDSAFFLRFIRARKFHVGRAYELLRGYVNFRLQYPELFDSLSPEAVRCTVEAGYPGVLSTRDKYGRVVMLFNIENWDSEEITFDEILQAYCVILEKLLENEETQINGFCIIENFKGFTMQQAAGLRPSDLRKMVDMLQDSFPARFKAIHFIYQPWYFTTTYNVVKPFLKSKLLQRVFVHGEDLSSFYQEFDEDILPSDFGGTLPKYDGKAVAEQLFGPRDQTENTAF

For the compound “oxidized A212C:T250C:9-cis-retinal: oxidized A212C:T250C mutant in complex with 9-cis-retinal”, the photoisomerization detectable result in series [1] (FIG. 9, oxidized with 5 mM oxidized glutathione) is reported as “No photoisomerization was detectable”.

On to “monomeric complex of di-cysteine A212C:T250C CRALBP with 9-cis-retinal: monomeric GFC fraction of A212C:T250C CRALBP loaded with 9-cis-retinal”, for which the “average size distribution in diameter” value in series [2] is 6.50±1.50 nm.

Consider `CC1=C(/C=C/C(C)=C/C=C/C(C)=C/C=O)C(C)(C)CCC1` [11-cis-retinal], for which the Kd at CRALBP was 20 nM.

“HMW: high molecular weight oligomeric complex fraction of A212C:T250C CRALBP with 9-cis-retinal”: the “average size distribution in diameter” value in series [2] is recorded as 13.50±0.47 nm.

With “red. A212C:T250C: 11-cis-retinal: reduced A212C:T250C mutant in complex with 11-cis-retinal”, the “k, reaction velocity of photoisomerization” value (shortened to “k, reaction velocity”) in series [1] (FIG. 9) is 5.988e-05 s⁻¹.

Take “CRALBP: CRALBP isolated from bovine retina, in complex with 11-cis-retinal”: the “expected photoisomerization in CRALBP compared to rhodopsin” value in series [3] is given as 4%.

On to “dimeric complex: dimeric GFC fraction of A212C:T250C CRALBP loaded with 9-cis-retinal”, for which, in series [2], the “average size distribution in diameter” value is 8.72±2.41 nm.

In the case of `CC1=C(/C=C/C(C)=C\C=C\C(C)=C\C=O)C(C)(C)CCC1` [9-cis-retinal], the equilibrium dissociation constant (Kd) on CRALBP was 53 nM.

For “ox. A212C:T250C: 11-cis-retinal: oxidized A212C:T250C mutant in complex with 11-cis-retinal”, the “k, reaction velocity” value in series [1] (FIG. 9) amounted to 6.44e-06 s⁻¹.

For the compound “SHMW: super high molecular weight oligomeric complex fraction of A212C:T250C CRALBP with 9-cis-retinal”, in series [2], the “average size distribution in diameter” value is given as 28.28±2.13 nm.

Consider “A212C:T250C: human CRALBP mutein with alanine 212 and threonine 250 replaced by cysteines, SEQ ID NO:9”, for which the “increase of photostability (half-life t1/2), oxidized versus reduced redox state” value in series [1] (FIG. 8, complex with cis-retinal, 1000 lux) is on record as 20 fold. For the same compound, the “slowing down of the rate of photoisomerization” value in series [1] (oxidized state, FIG. 9, 380 lux, room temperature) was “at least 10 fold”. The “behaviour in photoisomerization assay after repeat reduction” value in series [1] (repeat reduction of the oxidized sample in 5 mM DTT) is on record as “re-established wild-type like behavior”.

For `CC1=C(/C=C/C(C)=C/C=C/C(C)=C/C=O)C(C)(C)CCC1` [13-cis], the “binding to CRALBP” value on CRALBP is “does not bind”.

With “wild-type: wild-type CRALBP in complex with cis-retinal, photoisomerization assay [reference compound]”, the “k, reaction velocity” value in series [1] (FIG. 9) turned out to be 6.324e-05 s⁻¹.

Take `CC1=C(/C=C/C(C)=C/C=C\C(C)=C\CO)C(C)(C)CCC1` [11-cis-retinol]: on CRALBP, the Kd was 60 nM.
